Laboratory results: the supplement of paper PMC7877785
± gives the uncertainty stated by the source.

Test: self-splicing fitness, log relative to wild type (ln ratio); higher = more splicing; Tetrahymena group I intron in knt gene, E. coli kanamycin selection, DiMSum; sequences stand for … in CUCUCU…GGAGGGAAAAGUUAUCAGGCAUGCACCUGGUAGCUAGUCUUUAAACCAAUAGAUUGCAUCGGUUUAAAAGGCAAGACCGUCAAAUUGCGGGAAAGGGGUCAACAGCCGUUCAGUACCAAGUCUCAGGGGAAACUUUGAGAUGGCCUUGCAAAGGGUAUGGUAAUAAGCUGACGGACAUGGUCCUAACCACGCAGCCAAGUCCUAAGUCAACAGAUCUUCUGUUGAUAUGGAUGCAGUUCACAGACUAAAUGUCGGUCGGGGAAGAUGUAUUCUUCUCAUAAGAUAUAGUCGGACCUCUCCUUAAUGGGAGCUAGCGGAUGAAGUGAUGCAACACUGGAGCCGCUGGGAACUAAUUUGUAUGCGAAAGUAUAUUGAUUAGUUUUGGAGUACUCGUGGUCG
Outline: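 Colonies from six replicate transformations of E. coli BL21(DE3) were pooled and amplicon-sequenced on an Illumina HiSeq 2500. The library placed an intron with all eight P1ex-region nucleotides randomised inside the knt kanamycin-resistance gene on pET-22b(+), and cells grew overnight at 37°C or 30°C on LB agar with or without 25 μg/mL kanamycin (plus 100 μg/mL carbenicillin, 50 μM IPTG, 0.2% rhamnose). Fitness is the DiMSum error-weighted combination of wild-type-normalised replicate fold changes, kanamycin versus none.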

Sequence: UUACAGCAAUAUUACGUUGC
- self-splicing fitness (ln) (30 °C): -3.56 ± 0.37
- self-splicing fitness (ln) (37 °C): -2.37 ± 0.26

Sequence: UUAGAGCAAUAUUACGAAAC
- self-splicing fitness (ln) (30 °C): -2.21 ± 0.41

Sequence: UUAGAGCAAUAUUACGACAG
- self-splicing fitness (ln) (30 °C): -0.55 ± 0.082
- self-splicing fitness (ln) (37 °C): -0.391 ± 0.1

Sequence: UUAGAGCAAUAUUACGAUGG
- self-splicing fitness (ln) (30 °C): -1.02 ± 0.15
- self-splicing fitness (ln) (37 °C): 0.108 ± 0.19

Sequence: UUAGAGCAAUAUUACGCAGC
- self-splicing fitness (ln) (30 °C): -3.08 ± 0.35

Sequence: UUAGAGCAAUAUUACGCCCG
- self-splicing fitness (ln) (30 °C): -1.21 ± 0.11
- self-splicing fitness (ln) (37 °C): -0.643 ± 0.19

Sequence: UUAGAGCAAUAUUACGGAAA
- self-splicing fitness (ln) (30 °C): -2.59 ± 0.19
- self-splicing fitness (ln) (37 °C): -1.72 ± 0.23

Sequence: UUAGAGCAAUAUUACGGGAU
- self-splicing fitness (ln) (30 °C): -3.45 ± 0.39
- self-splicing fitness (ln) (37 °C): -2.97 ± 0.4

Sequence: UUAGAGCAAUAUUACGGUGC
- self-splicing fitness (ln) (30 °C): -3.76 ± 0.28
- self-splicing fitness (ln) (37 °C): -2.11 ± 0.36

Sequence: UUAGAGCAAUAUUACGUAAG
- self-splicing fitness (ln) (30 °C): -2.23 ± 0.097
- self-splicing fitness (ln) (37 °C): -1.2 ± 0.1

Sequence: UUAGAGCAAUAUUACGUCCU
- self-splicing fitness (ln) (30 °C): -1.36 ± 0.21
- self-splicing fitness (ln) (37 °C): -1.87 ± 0.31

Sequence: UUAGAGCAAUAUUACGUUAC
- self-splicing fitness (ln) (37 °C): -2.17 ± 0.46

Sequence: UUAGAGCAAUAUUACGUUGG
- self-splicing fitness (ln) (30 °C): -1.89 ± 0.1
- self-splicing fitness (ln) (37 °C): -1.59 ± 0.14

Sequence: UUAGAGCAAUAUUACGUUUA
- self-splicing fitness (ln) (30 °C): -2.01 ± 0.13
- self-splicing fitness (ln) (37 °C): -0.913 ± 0.15

Sequence: UUAGAGCAAUAUUACGUUUG
- self-splicing fitness (ln) (30 °C): -2.04 ± 0.11
- self-splicing fitness (ln) (37 °C): -1.05 ± 0.14

Sequence: UUAUAGCAAUAUUACGAAAU
- self-splicing fitness (ln) (30 °C): -3.75 ± 0.34
- self-splicing fitness (ln) (37 °C): -1.34 ± 0.3

Sequence: UUAUAGCAAUAUUACGAACG
- self-splicing fitness (ln) (30 °C): -0.792 ± 0.17
- self-splicing fitness (ln) (37 °C): -0.293 ± 0.21

Sequence: UUAUAGCAAUAUUACGACGU
- self-splicing fitness (ln) (30 °C): -3.45 ± 0.25
- self-splicing fitness (ln) (37 °C): -1.14 ± 0.16

Sequence: UUAUAGCAAUAUUACGAGGA
- self-splicing fitness (ln) (30 °C): -2.68 ± 0.3
- self-splicing fitness (ln) (37 °C): -1.01 ± 0.23

Sequence: UUAUAGCAAUAUUACGAUCA
- self-splicing fitness (ln) (30 °C): -0.672 ± 0.15
- self-splicing fitness (ln) (37 °C): -0.403 ± 0.17

Sequence: UUAUAGCAAUAUUACGAUGU
- self-splicing fitness (ln) (30 °C): -2.57 ± 0.2
- self-splicing fitness (ln) (37 °C): -1.57 ± 0.23

Sequence: UUAUAGCAAUAUUACGAUUA
- self-splicing fitness (ln) (30 °C): -0.871 ± 0.11
- self-splicing fitness (ln) (37 °C): -0.272 ± 0.13

Sequence: UUAUAGCAAUAUUACGCAUG
- self-splicing fitness (ln) (30 °C): -1.67 ± 0.25
- self-splicing fitness (ln) (37 °C): -0.364 ± 0.23

Sequence: UUAUAGCAAUAUUACGCGAA
- self-splicing fitness (ln) (30 °C): -1.97 ± 0.2
- self-splicing fitness (ln) (37 °C): -1.53 ± 0.34

Sequence: UUAUAGCAAUAUUACGCGCU
- self-splicing fitness (ln) (30 °C): -2.25 ± 0.14
- self-splicing fitness (ln) (37 °C): -1.55 ± 0.13

Sequence: UUAUAGCAAUAUUACGCGGU
- self-splicing fitness (ln) (30 °C): -3.14 ± 0.28
- self-splicing fitness (ln) (37 °C): -1.64 ± 0.28

Sequence: UUAUAGCAAUAUUACGGAGU
- self-splicing fitness (ln) (30 °C): -3.38 ± 0.32
- self-splicing fitness (ln) (37 °C): -2.15 ± 0.3

Sequence: UUAUAGCAAUAUUACGGCGG
- self-splicing fitness (ln) (30 °C): -0.333 ± 0.16
- self-splicing fitness (ln) (37 °C): 0.825 ± 0.2

Sequence: UUAUAGCAAUAUUACGGGAU
- self-splicing fitness (ln) (30 °C): -2.78 ± 0.39
- self-splicing fitness (ln) (37 °C): -3.5 ± 0.42

Sequence: UUAUAGCAAUAUUACGGGCU
- self-splicing fitness (ln) (30 °C): -2 ± 0.33
- self-splicing fitness (ln) (37 °C): -1.3 ± 0.22

Sequence: UUAUAGCAAUAUUACGUAAU
- self-splicing fitness (ln) (30 °C): -3.23 ± 0.31
- self-splicing fitness (ln) (37 °C): -2.11 ± 0.36

Sequence: UUAUAGCAAUAUUACGUGUC
- self-splicing fitness (ln) (30 °C): -4.44 ± 0.36
- self-splicing fitness (ln) (37 °C): -2.71 ± 0.26

Sequence: UUAUAGCAAUAUUACGUUUG
- self-splicing fitness (ln) (30 °C): -2.12 ± 0.15
- self-splicing fitness (ln) (37 °C): -1.14 ± 0.18

Sequence: UUCAAGCAAUAUUACGAACU
- self-splicing fitness (ln) (30 °C): -2.74 ± 0.27
- self-splicing fitness (ln) (37 °C): -1.62 ± 0.25

Sequence: UUCAAGCAAUAUUACGACAG
- self-splicing fitness (ln) (30 °C): -1.5 ± 0.11
- self-splicing fitness (ln) (37 °C): -1.1 ± 0.095

Sequence: UUCAAGCAAUAUUACGAGAC
- self-splicing fitness (ln) (30 °C): -3.86 ± 0.23
- self-splicing fitness (ln) (37 °C): -2.23 ± 0.19

Sequence: UUCAAGCAAUAUUACGAGAG
- self-splicing fitness (ln) (30 °C): -1.5 ± 0.11
- self-splicing fitness (ln) (37 °C): -1.34 ± 0.11

Sequence: UUCAAGCAAUAUUACGAUCG
- self-splicing fitness (ln) (30 °C): -1.26 ± 0.1
- self-splicing fitness (ln) (37 °C): -2.3 ± 0.2

Sequence: UUCAAGCAAUAUUACGAUUG
- self-splicing fitness (ln) (30 °C): -3.63 ± 0.35
- self-splicing fitness (ln) (37 °C): -2.24 ± 0.27
